Source: article doi:10.1101/2022.01.18.476780
Like-named read-outs stand apart in the source and are kept apart here.

Legend:
Sox2 HMG DBD WT [1] = target: T1, Sox2 HMG DBD WT (human, UniProt P48431 39-118); test: EMSA
[2] = target: Oct4 DBD (POUS-linker-POUHD) (UniProt Q01860 133-296); test: EMSA
Sox2 HMG DBD WT [3] = target: T1, Sox2 HMG DBD WT; test: NMR
Sox2 HMG DBD WT [4] = target: T1, Sox2 HMG DBD WT; test: NMR; remark: listed apart in the source
Sox2 HMG Y72A = Sox2 HMG Y72A (human, UniProt P48431 39-118, Y108A); test: NMR
Sox2 HMG Y72A, sequence (P48431 39-118 Y108A): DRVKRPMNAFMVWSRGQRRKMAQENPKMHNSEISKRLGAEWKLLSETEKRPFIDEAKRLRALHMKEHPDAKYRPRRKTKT

T1 sequence (P48431 39-118): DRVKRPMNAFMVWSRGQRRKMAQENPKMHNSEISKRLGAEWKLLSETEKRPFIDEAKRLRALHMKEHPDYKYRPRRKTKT
Oct4 DBD (POUS-linker-POUHD), sequence (Q01860 133-296): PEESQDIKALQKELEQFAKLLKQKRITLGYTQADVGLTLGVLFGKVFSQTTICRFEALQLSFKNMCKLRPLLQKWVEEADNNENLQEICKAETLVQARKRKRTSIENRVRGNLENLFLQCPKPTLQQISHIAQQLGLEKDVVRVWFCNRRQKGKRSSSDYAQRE

B1: DNA 54RN (dsDNA)
DNA 1: TGGAGAATCCCGGTGCCGAGGCCGCTCAATTGGTCGTAGACAGCTCTAGCACCGCTTAAACGCACGTACGCGCTGTCCCCCGCGTTTTAACCGCCAAGGGGATTACTCCCTAGTCTCCAGGCCATTGTAATGCAAAAGCTATCGT
DNA 2: ACGATAGCTTTTGCATTACAATGGCCTGGAGACTAGGGAGTAATCCCCTTGGCGGTTAAAACGCGGGGGACAGCGCGTACGTGCGTTTAAGCGGTGCTAGAGCTGTCTACGACCAATTGAGCGGCCTCGGCACCGGGATTCTCCA
Binder B1 has a Kd (Sox2 HMG DBD WT [1]) of 3 ± 0.4 nM and a Kd [2] of 38 ± 4 nM.

B2: DNA 27F (dsDNA)
DNA 1: TGGAGAATCCCGGTGCCGAGGCCGCTCAATTGGTCGTAGACAGCTCTAGCACCGCTTAAACGCACGTACGCGCTGTCCCCCGCGTTATTAGCATCCAAACAAAGACTCCCTAGTCTCCAGGCACGTGTGGTTACGAGGCTATCGT
DNA 2: ACGATAGCCTCGTAACCACACGTGCCTGGAGACTAGGGAGTCTTTGTTTGGATGCTAATAACGCGGGGGACAGCGCGTACGTGCGTTTAAGCGGTGCTAGAGCTGTCTACGACCAATTGAGCGGCCTCGGCACCGGGATTCTCCA
B2: binds (Sox2 HMG DBD WT [3]).

B3: sDNAF (dsDNA)
DNA 1: GACTCTTTGTTTGGC
DNA 2: GCCAAACAAAGAGTC
B3: binds (Sox2 HMG DBD WT [4]); binds (Sox2 HMG Y72A).

B4: DNA 62F (dsDNA)
DNA 1: TGGAGAATCCCGGTGCCGAGGCCGCTCAATTGGTCGTAGACAGCTCTAGCACCGCTTAAACGCACGTACGCGCTGTCCCCCGCGTTTTAACCGCCAAGGGGATTACTCCCTAGTCTCCAGGATTAGCATCCAAACAAAGTATCGT
DNA 2: ACGATACTTTGTTTGGATGCTAATCCTGGAGACTAGGGAGTAATCCCCTTGGCGGTTAAAACGCGGGGGACAGCGCGTACGTGCGTTTAAGCGGTGCTAGAGCTGTCTACGACCAATTGAGCGGCCTCGGCACCGGGATTCTCCA
B4 showed a Kd (Sox2 HMG DBD WT [1]) of 2.1 ± 0.2 nM.

B5: DNA 54RF (dsDNA)
DNA 1: TGGAGAATCCCGGTGCCGAGGCCGCTCAATTGGTCGTAGACAGCTCTAGCACCGCTTAAACGCACGTACGCGCTGTCCCCCGCGTTTTAACCGCCAAGGGGATTACTCCCTAGTCTCCAGGCCTTTGTTTGGATGCTAATATCGT
DNA 2: ACGATATTAGCATCCAAACAAAGGCCTGGAGACTAGGGAGTAATCCCCTTGGCGGTTAAAACGCGGGGGACAGCGCGTACGTGCGTTTAAGCGGTGCTAGAGCTGTCTACGACCAATTGAGCGGCCTCGGCACCGGGATTCTCCA
B5 was tested, and the Kd (Sox2 HMG DBD WT [1]) was 1.1 ± 0.2 nM and the Kd [2] was 32 ± 3 nM.

B6: DNA 2RN (dsDNA)
DNA 1: TGGAGAATCCCGGTGCCGAGGCCGCTCAATTGGTCGTAGACAGCTCTAGCACCGCTTAAACGCACGTACGCATTGTAATGCAAAATTTAACCGCCAAGGGGATTACTCCCTAGTCTCCAGGCACGTGTGGTTACGAGGCTATCGT
DNA 2: ACGATAGCCTCGTAACCACACGTGCCTGGAGACTAGGGAGTAATCCCCTTGGCGGTTAAATTTTGCATTACAATGCGTACGTGCGTTTAAGCGGTGCTAGAGCTGTCTACGACCAATTGAGCGGCCTCGGCACCGGGATTCTCCA
In the case of B6, the Kd (Sox2 HMG DBD WT [1]) is reported as 3.7 ± 0.5 nM.

B7: DNA 601* (dsDNA)
DNA 1: TGGAGAATCCCGGTGCCGAGGCCGCTCAATTGGTCGTAGACAGCTCTAGCACCGCTTAAACGCACGTACGCGCTGTCCCCCGCGTTTTAACCGCCAAGGGGATTACTCCCTAGTCTCCAGGCACGTGTGGTTACGAGGCTATCGT
DNA 2: ACGATAGCCTCGTAACCACACGTGCCTGGAGACTAGGGAGTAATCCCCTTGGCGGTTAAAACGCGGGGGACAGCGCGTACGTGCGTTTAAGCGGTGCTAGAGCTGTCTACGACCAATTGAGCGGCCTCGGCACCGGGATTCTCCA
In the case of B7, the Kd (Sox2 HMG DBD WT [1]) is reported as 8 ± 0.7 nM and the Kd [2] is reported as 160 ± 20 nM.

B8: DNA 62N (dsDNA)
DNA 1: TGGAGAATCCCGGTGCCGAGGCCGCTCAATTGGTCGTAGACAGCTCTAGCACCGCTTAAACGCACGTACGCGCTGTCCCCCGCGTTTTAACCGCCAAGGGGATTACTCCCTAGTCTCCAGGCACTTTTGCATTACAATGTATCGT
DNA 2: ACGATACATTGTAATGCAAAAGTGCCTGGAGACTAGGGAGTAATCCCCTTGGCGGTTAAAACGCGGGGGACAGCGCGTACGTGCGTTTAAGCGGTGCTAGAGCTGTCTACGACCAATTGAGCGGCCTCGGCACCGGGATTCTCCA
Work on B8 yielded a Kd (Sox2 HMG DBD WT [1]) of 2.3 ± 0.3 nM.
